Changes are numbered by the printed parent chain.
B1: LaN, C-terminally truncated La fragment aa1-192 (domain or fragment, human, UniProt P05455 1-192, looked up)
chain: MAENGDNEKMAALEAKICHQIEYYFGDFNLPRDKFLKEQIKLDEGWVPLEIMIKFNRLNRLTTDFNVIVEALSKSKAELMEISEDKTKIRRSPSKPLPEVTDEYKNDVKNRSVYIKGFPTDATLDDIKEWLEDKGQVLNIQMRRTLHKAFKGSIFVVFDSIESAKKFVETPGQKYKETDLLILFKDDYFAKK
notes: La protein, human, residues 1-192 (La motif plus RRM1 domain); also called La 1-192
B2: mono cysteine mutant of La protein (La_C18A) (natural protein, human, UniProt P05455 1-408, looked up)
chain: MAENGDNEKMAALEAKIAHQIEYYFGDFNLPRDKFLKEQIKLDEGWVPLEIMIKFNRLNRLTTDFNVIVEALSKSKAELMEISEDKTKIRRSPSKPLPEVTDEYKNDVKNRSVYIKGFPTDATLDDIKEWLEDKGQVLNIQMRRTLHKAFKGSIFVVFDSIESAKKFVETPGQKYKETDLLILFKDDYFAKKNEERKQNKVEAKLRAKQEQEAKQKLEEDAEMKSLEEKIGCLLKFSGDLDDQTCREDLHILFSNHGEIKWIDFVRGAKEGIILFKEKAKEALGKAKDANNGNLQLRNKEVTWEVLEGEVEKEALKKIIEDQQESLNKWKSKGRRFKGKGKGNKAAQPGSGKGKVQFQGKKTKFASDDEHDEHDENGATGPVKRAREETDKEEPASKQQKTENGAGDQ
notes: La protein, human, with Cys18 changed to alanine; Runs as 50 kDa La protein
B3: double cysteine mutant of La protein (La_C232A_C245A) (natural protein, human, UniProt P05455 1-408, looked up)
chain: B2 chain with A18C, C232A, C245A
notes: La protein, human, with Cys232 and Cys245 changed to alanine
B4: La 278-408 (domain or fragment, human, UniProt P05455 278-408, looked up)
chain: KAKEALGKAKDANNGNLQLRNKEVTWEVLEGEVEKEALKKIIEDQQESLNKWKSKGRRFKGKGKGNKAAQPGSGKGKVQFQGKKTKFASDDEHDEHDENGATGPVKRAREETDKEEPASKQQKTENGAGDQ
B5: LaC, C-terminal La fragment aa194-408 (domain or fragment, human, UniProt P05455 194-408, looked up)
chain: EERKQNKVEAKLRAKQEQEAKQKLEEDAEMKSLEEKIGCLLKFSGDLDDQTCREDLHILFSNHGEIKWIDFVRGAKEGIILFKEKAKEALGKAKDANNGNLQLRNKEVTWEVLEGEVEKEALKKIIEDQQESLNKWKSKGRRFKGKGKGNKAAQPGSGKGKVQFQGKKTKFASDDEHDEHDENGATGPVKRAREETDKEEPASKQQKTENGAGDQ
B6: La 239-408 (domain or fragment, human, UniProt P05455 239-408, looked up)
chain: DLDDQTCREDLHILFSNHGEIKWIDFVRGAKEGIILFKEKAKEALGKAKDANNGNLQLRNKEVTWEVLEGEVEKEALKKIIEDQQESLNKWKSKGRRFKGKGKGNKAAQPGSGKGKVQFQGKKTKFASDDEHDEHDENGATGPVKRAREETDKEEPASKQQKTENGAGDQ
B7: La 1-371 (domain or fragment, human, UniProt P05455 1-371, looked up)
chain: MAENGDNEKMAALEAKICHQIEYYFGDFNLPRDKFLKEQIKLDEGWVPLEIMIKFNRLNRLTTDFNVIVEALSKSKAELMEISEDKTKIRRSPSKPLPEVTDEYKNDVKNRSVYIKGFPTDATLDDIKEWLEDKGQVLNIQMRRTLHKAFKGSIFVVFDSIESAKKFVETPGQKYKETDLLILFKDDYFAKKNEERKQNKVEAKLRAKQEQEAKQKLEEDAEMKSLEEKIGCLLKFSGDLDDQTCREDLHILFSNHGEIKWIDFVRGAKEGIILFKEKAKEALGKAKDANNGNLQLRNKEVTWEVLEGEVEKEALKKIIEDQQESLNKWKSKGRRFKGKGKGNKAAQPGSGKGKVQFQGKKTKFASDDEHD
notes: La protein, human, residues 1-371 (holds the Dim domain)
B8: La 1-245 (domain or fragment, human, UniProt P05455 1-245, looked up)
chain: MAENGDNEKMAALEAKICHQIEYYFGDFNLPRDKFLKEQIKLDEGWVPLEIMIKFNRLNRLTTDFNVIVEALSKSKAELMEISEDKTKIRRSPSKPLPEVTDEYKNDVKNRSVYIKGFPTDATLDDIKEWLEDKGQVLNIQMRRTLHKAFKGSIFVVFDSIESAKKFVETPGQKYKETDLLILFKDDYFAKKNEERKQNKVEAKLRAKQEQEAKQKLEEDAEMKSLEEKIGCLLKFSGDLDDQTC
notes: La protein, human, residues 1-245 (lacks the Dim domain)

Assays:
[1] = biological target: B5; test: far-Western, overlay or dot blot; His-tagged La fragments separated by SDS-PAGE and blotted; after blocking the membrane was incubated with unlabeled full-length La protein (or LaN); bound probe detected with the anti-La mAb SW5 (Figure 5C also with 5B9); conditions: both partners purified
[2] = biological target: the molecule itself; test: non-reducing SDS-PAGE and immunoblotting; purified La proteins as isolated (untreated) or treated with 2 mM CuSO4 (oxidized), sample buffer without ß-mercaptoethanol; blots with anti-La mAb SW5 or 7B6; shows only species held by disulfide bridges
[3] = biological target: T1, full-length human La protein (La 1-408) (human, UniProt P05455 1-408); test: SPR; full-length human La protein (La1-408) covalently linked to the sensor chip; BSA-coupled chip as control; La 1-408 or deletion mutants as analytes; conditions: both partners purified
T1 construct: Cloned into pET28b; also called La/SS-B; wild-type La protein
T1 sequence (looked up): B2 chain with A18C

[4] = biological target: T1, full-length human La protein (La 1-408); test: far-Western, overlay or dot blot; His-tagged La fragments separated by SDS-PAGE and blotted; after blocking the membrane was incubated with unlabeled full-length La protein (or LaN); bound probe detected with the anti-La mAb SW5 (Figure 5C also with 5B9); conditions: both partners purified

Row | Binder | binding result [3] | other results
1 | B1 |  | binding result [1]: binds
2 | B2 |  | binding result [2]: binds
3 | B3 |  | stoichiometry N [2]: 2
4 | B4 | binds | 
5 | B5 |  | binding result [4]: binds
6 | B6 | binds | 
7 | B7 | binds | 
8 | B8 | binds | 
